According to patent US20180298070A1, “PEPTIDE COMPOUND” (Takeda Pharmaceutical Company Limited, published 2018):
Non-standard residues stand in square brackets, D forms with d. Groups on a side chain read outwards from the residue. Primed or numbered codes have the meaning given here. No end group written: not given here. *: point of attachment. αMeF = C[C@](N)(Cc1ccccc1)C(=O)O; Lauroyl = CCCCCCCCCCCC(=O)*; dIva = CC[C@@](C)(N)C(=O)O; Iva = CC[C@](C)(N)C(=O)O; PEG2′ = not defined here; Dda = not defined here; Aib = CC(C)(N)C(=O)O

How the values were obtained:
[1] = target: T1, human GIPR (human), P48546; experiment: [125I]GIP displacement, hGIPR VLP
T1 chain: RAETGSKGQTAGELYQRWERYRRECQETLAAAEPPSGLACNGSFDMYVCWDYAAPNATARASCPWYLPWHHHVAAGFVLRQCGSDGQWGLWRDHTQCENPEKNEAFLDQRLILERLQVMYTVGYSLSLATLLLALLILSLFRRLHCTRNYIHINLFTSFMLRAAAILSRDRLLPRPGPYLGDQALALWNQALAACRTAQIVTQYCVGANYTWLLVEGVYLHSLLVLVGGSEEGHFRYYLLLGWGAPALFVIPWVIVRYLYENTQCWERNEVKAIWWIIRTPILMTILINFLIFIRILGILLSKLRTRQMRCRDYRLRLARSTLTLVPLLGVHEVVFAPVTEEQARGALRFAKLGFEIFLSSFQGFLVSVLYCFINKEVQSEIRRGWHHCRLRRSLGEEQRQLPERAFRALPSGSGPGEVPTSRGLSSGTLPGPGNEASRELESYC

[2] = target: T2, human GLP-1R (human), P43220
T2 chain: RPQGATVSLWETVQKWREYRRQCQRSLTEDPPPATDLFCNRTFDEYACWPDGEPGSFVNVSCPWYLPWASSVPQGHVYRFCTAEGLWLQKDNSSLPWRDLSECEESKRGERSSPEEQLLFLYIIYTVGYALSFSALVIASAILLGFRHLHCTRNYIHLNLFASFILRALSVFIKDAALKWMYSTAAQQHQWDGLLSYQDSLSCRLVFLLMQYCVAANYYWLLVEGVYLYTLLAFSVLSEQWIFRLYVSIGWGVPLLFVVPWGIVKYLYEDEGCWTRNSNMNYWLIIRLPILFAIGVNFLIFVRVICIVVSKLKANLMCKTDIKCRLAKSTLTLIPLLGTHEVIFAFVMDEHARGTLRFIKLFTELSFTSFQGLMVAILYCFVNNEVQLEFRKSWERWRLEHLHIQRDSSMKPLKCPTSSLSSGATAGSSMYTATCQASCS

[3] = target: T1, human GIPR (human), P48546

B1: Compound 215 (peptide)
peptide: Y[Aib]EGTFISDYSK([PEG2′-Lauroyl])ALDR[Aib]HQ[Aib]NFVNW[Iva]LAQRPSSGAPPPS
modifications: not fully specified (C-terminus); ends and bridges not checked
IC50 [1]: 2.8 nM
Agonist activity (EC50, M) [2]: 1.5e-07 M
Agonist activity (EC50, M) [3]: 2.8e-12 M

B2: Compound 194 (peptide)
peptide: Y[Aib]EGTFISDYSK([PEG(2)-Lauroyl])ALDRIAQQDFVN[αMeF]LLAQRPSSGAPPPSR
modifications: ends and bridges not checked
IC50 [1]: 2.3 nM
Agonist activity (EC50, M) [2]: 2.5e-08 M
Agonist activity (EC50, M) [3]: 3.5e-12 M

B3: Compound 204 (peptide)
peptide: Y[Aib]EGTFISDYSK([PEG(2)-Lauroyl])ALDRIAQ[Aib]NFVNWLLAQRPSSGAPPPS
modifications: ends and bridges not checked
IC50 [1]: 2.6 nM
Agonist activity (EC50, M) [2]: 9.5e-09 M
Agonist activity (EC50, M) [3]: 8.1e-12 M

B4: Compound 197 (peptide)
peptide: Y[Aib]EGTFISDYSK([PEG(2)-Lauroyl])ALDRIAQ[Aib]NFVNWLLAQRPSSGAPPPSR
modifications: ends and bridges not checked
IC50 [1]: 2.6 nM
Agonist activity (EC50, M) [2]: 1.1e-08 M
Agonist activity (EC50, M) [3]: 5.6e-12 M

B5: Compound 195 (peptide)
peptide: Y[Aib]EGTFISDYSK([PEG(2)-Lauroyl])ALDRIAQQD[αMeF]VNWLLAQRPSSGAPPPSR
modifications: ends and bridges not checked
IC50 [1]: 2.3 nM
Agonist activity (EC50, M) [2]: 1e-07 M
Agonist activity (EC50, M) [3]: 4.8e-12 M

B6: Compound 196 (peptide)
peptide: Y[Aib]EGTFISDYSK([PEG(2)-Lauroyl])ALDRIAQQSFVNWLLAQRPSSGAPPPSR
modifications: ends and bridges not checked
IC50 [1]: 2.4 nM
Agonist activity (EC50, M) [2]: 4.4e-08 M
Agonist activity (EC50, M) [3]: 6.3e-12 M

B7: Compound 205 (peptide)
peptide: Y[Aib]EGTFISDYSK([PEG(2)-Lauroyl])ALDR[Aib]AQQDFVNWLLAQRPSSGAPPPS
modifications: ends and bridges not checked
IC50 [1]: 1.6 nM
Agonist activity (EC50, M) [2]: 2.9e-08 M
Agonist activity (EC50, M) [3]: 3.4e-12 M

B8: Compound 188 (peptide)
peptide: Y[Aib]EGTFISDYSK([PEG2′-Dda])ALDRIAQQDFVNWLLAQRPSSGAPPPSR
modifications: ends and bridges not checked
IC50 [1]: 2.7 nM
Agonist activity (EC50, M) [2]: 2e-07 M
Agonist activity (EC50, M) [3]: 3e-12 M

B9: Compound 220 (peptide)
peptide: Y[Aib]EGTFISDYSK([PEG2′-Lauroyl])ALDRIAQQSFVNW[Iva]LAQRPSSGAPPPS
modifications: not fully specified (C-terminus); ends and bridges not checked
IC50 [1]: 2.9 nM
Agonist activity (EC50, M) [2]: 9.9e-08 M
Agonist activity (EC50, M) [3]: 5.3e-12 M

B10: Compound 199 (peptide)
peptide: Y[Aib]EGTFISDYSK([PEG(2)-Lauroyl])[dIva]LDRIAQQDFVNWLLAQRPSSGAPPPSR
modifications: ends and bridges not checked
IC50 [1]: 2.4 nM
Agonist activity (EC50, M) [2]: > 1e-06 M
Agonist activity (EC50, M) [3]: 3.4e-11 M

B11: Compound 191 (peptide)
peptide: Y[Aib]EGTFISDYSK([PEG(2)-Lauroyl])ALDRIAQQDFVNWLLAQRPSSGAPPPS
modifications: ends and bridges not checked
IC50 [1]: 2.7 nM
Agonist activity (EC50, M) [2]: 5e-08 M
Agonist activity (EC50, M) [3]: 4.1e-12 M

B12: Compound 203 (peptide)
peptide: Y[Aib]EGTFISDYSK([PEG(2)-Lauroyl])ALDRIAQQSFVNWLLAQRPSSGAPPPS
modifications: ends and bridges not checked
IC50 [1]: 2.1 nM
Agonist activity (EC50, M) [2]: > 1e-06 M
Agonist activity (EC50, M) [3]: 4.3e-12 M
